# Data reported in patent US20170218055A1 (UNIVERSITY OF CHICAGO, published 2017).
# B1: mAb 5A10 (antibody, V domains shown)
# VH: EVKLVESGGGLVKPGGSLKLSCAASGFAFSNYDMSWVRQTPEKRLEWVATISSGGTYPYYPDSVKGRFTISRDNAKNTLYLQLSSLRSEDTALYYCARGGFLITTRDYYAMDYWGQGTSVTVSS
# VL: TIVLTQSPAIMSASPGEKVTMTCSASSSVSYMYWYQQKPGSSPRLLIYDTSNLASGVPVRFSGSGSGTSYSLTISRMEAEDAATYYCQQWSSYPPTFGGGTKLEIK
# notes: Mouse IgG1 hybridoma mAb raised against SpAKKAA; also called 5A10-HRP; HRP-5A10
# B2: mAb 8E2 (antibody, V domains shown)
# VH: KVQLQQSGAGLVKPGASVKLSCKASGYTFTEYSIHWVKQSSGQGLEWIGWFYPGSGYIKYNEKFKDKATLTADKSSSTVYMEFSRLTSEDSAVYFCARHGYGNYVGYAMDYWGQGTSVTVSS
# VL: DIQMTQSPASLSASVGETVTITCRASEIIYSYLAWYQQKQGKSPQLLVYFAKTLAEGVPSRFSGSGSGTQFSLKINSLQPEDFGIYYCQHHYGTPYTFGGGTKLEIK
# notes: Mouse IgG1 hybridoma mAb
# B3: mAb 3A6 (antibody, V domains shown)
# VH: QIQLVQSGPELKKPGETVKISCKASGYNFTDYSMHWVKQAPGKGLKWVGWINTETAESTYADDFKGRFAFSLETSASTAYLQINSLKDEDTATFFCAHFDCWGQGTTLTVSS
# VL: DVVMTQISLSLPVTLGDQASISCRASQSLVHSNGNTYLNWYLQKPGQSPKLLIHKVSNRFSGVPDRFSGSGSGTDFTLKISRVEAEDLGVYFCSQITYVPWTFGGGTKLEIK
# notes: Mouse IgG1 hybridoma mAb
# B4: mAb 7E2 (antibody, V domains shown)
# VH: QIQLVQSGPELKKPGETVKISCKASGYTFTDYSVHWVKQAPGKGLKWMAWINTATGEPTFADDFKGRFAFSLETSARTAYLQINNLKNEDTATYFCAPQLTGPFAYWGHGTLVTVSA
# VL: DIQMTQSPASLSASVGETVTITCRASENIHNYLAWYQQKQGKSPQLLVYNAKTLTDGVPSRFSGSGSGTQFSLKINSLQAGDFGSYYCQHSWSIPYTFGGGTRLQIR
# notes: Mouse IgG1 hybridoma mAb
# B5: mAb 6D11 (antibody, V domains shown)
# VH: QVQLQQSGAELVRPGTSVKVSCKASGNAFTNYLIEWIKQRPGQGLEWIGVINPGSGITNYNEKFKGKATLTADKSSNTAYMQLSSLSSDDSAVYFCSGSANWFAYWGQGTLVTVSA
# VL: DIVLTQSPASLAVSLGQRASISCRASESVEYSGASLMQWYQHKPGQPPKLLIYAASNVESGVPVRFSGSGSGTDFSLNIHPVEEDDIAMYFCQQSRKVPSTFGGGTKLEIK
# notes: Mouse IgG2a hybridoma mAb
# B6: mAb 3D11 (antibody, V domains shown)
# VH: QSGPELMKPGASVKISCKASGYSFTSYYMHWVKQSHGKSLEWIGYIDPFNGGTSYNQKFKGKATLTVDKSSSTAYMHLSSLTSEDSAVYYCARYGYDGTFYAMDYWGQGTSVTVSS
# VL: RIVLTQSPAITAASLGQKVTITCSASSSVSYMHWYQQKSGTSPKPWIYEISKLASGVPARFSGSGSGTSYSLTISSMEAEDAAIYYCQQWSYPFTFGSGTKLEIK
# notes: Mouse IgG2b hybridoma mAb raised against SpAKKAA; also called 3D11-HRP; HRP-3D11
# B7: mAb 2F2 (antibody, V domains shown)
# VH: VKLVESGGDLVKPGGSLKLSCAASRFTFSSYVMSWVRQTPEKRLEWVASIGSGGTTYYPDTVKGRFTISRDNARNILYLQMSSLRSDDTAMYYCTRGRGYGFAWYFDVWGAGTTVTVSS
# VL: B1 VL
# notes: Mouse IgG2b hybridoma mAb
# Columns and labels:
# [1] = molecular target: T1, SpAKKAA (non-toxigenic staphylococcal protein A variant) (Staphylococcus aureus, UniProt A0A0H3K686 37-327); experiment: ELISA, antigen-coated plate, mAb titrated
# T1 construct: The four substitutions are made in each of the five domains (20 in all); Purified from E. coli; also called non-toxigenic protein A
# [2] = molecular target: T2, BKKAA immunoglobulin binding domain of SpAKKAA (Staphylococcus aureus, UniProt A0A0H3K686 214-265); experiment: ELISA, antigen-coated plate, mAb titrated
# T2 construct: not shown: N-terminal six histidyl tag (pET15b)
# [3] = molecular target: T3, CKKAA immunoglobulin binding domain of SpAKKAA (Staphylococcus aureus, UniProt A0A0H3K686 214-323); experiment: ELISA, antigen-coated plate, mAb titrated
# T3 construct: the construct is said to span residues 234-291 of mature SpA and its limits may differ from the entry; not shown: N-terminal six histidyl tag (pET15b)
# [4] = molecular target: T4, AKKAA immunoglobulin binding domain of SpAKKAA (Staphylococcus aureus, UniProt A0A0H3K686 156-207); experiment: ELISA, antigen-coated plate, mAb titrated
# T4 construct: the construct is said to span residues 118-175 of mature SpA and its limits may differ from the entry; not shown: N-terminal six histidyl tag (pET15b)
# [5] = molecular target: T5, EKKAA immunoglobulin binding domain of SpAKKAA (Staphylococcus aureus, UniProt A0A0H3K686 37-92); experiment: ELISA, antigen-coated plate, mAb titrated
# T5 construct: also called SpA-EKKAA; E domain; not shown: N-terminal six histidyl tag (pET15b)
# [6] = molecular target: T6, DKKAA immunoglobulin binding domain of SpAKKAA (Staphylococcus aureus, UniProt A0A0H3K686 96-149); experiment: ELISA, antigen-coated plate, mAb titrated
# T6 construct: the construct is said to span residues 57-117 of mature SpA (61 residues), so its limits differ from the entry; not shown: N-terminal six histidyl tag (pET15b)
# [7] = molecular target: T7, peptide H1+2 (helices 1+2 of the EKKAA IgBD); experiment: ELISA, antigen-coated plate, mAb titrated
# T7 construct: Synthetic linear peptide; also called helix 1+2 peptide
# [8] = molecular target: T8, peptide H3 (helix 3 of the EKKAA IgBD); experiment: ELISA, antigen-coated plate, mAb titrated
# T8 construct: Synthetic linear peptide
# T8 peptide: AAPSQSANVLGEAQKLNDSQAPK
# [9] = molecular target: T9, peptide H1 (helix 1 of the EKKAA IgBD); experiment: ELISA, antigen-coated plate, mAb titrated
# T9 construct: Synthetic linear peptide, free NH2 and COOH ends as printed
# T9 peptide: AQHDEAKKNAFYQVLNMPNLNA
# [10] = molecular target: T10, peptide H2 (helix 2 of the EKKAA IgBD); experiment: ELISA, antigen-coated plate, mAb titrated
# T10 construct: Synthetic linear peptide
# T10 peptide: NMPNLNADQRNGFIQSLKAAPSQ
# [11] = molecular target: T5, EKKAA immunoglobulin binding domain of …; experiment: ELISA, antigen-coated plate
Binder,Ka [1] [M⁻¹],Ka [2] [M⁻¹],Ka [3] [M⁻¹],Ka [4] [M⁻¹],Ka [5] [M⁻¹],Ka [6] [M⁻¹],Ka [7] [M⁻¹],Ka [8] [M⁻¹],Ka [9] [M⁻¹],Ka [10] [M⁻¹],binding result [11]
B1,8.47e+09,7.03e+09,1.01e+10,8.08e+09,9.4e+09,8.19e+09,–,–,–,–,–
B2,1.56e+09,1.14e+09,1.26e+09,1.52e+09,1.4e+09,1.51e+09,2.9e+08,–,–,–,–
B3,1.37e+09,6.4e+08,4e+07,2.05e+09,1.38e+09,–,4.4e+08,1e+07,6e+07,–,–
B4,3.1e+08,3.2e+08,2.8e+08,3.6e+08,2.9e+08,3e+08,–,–,–,–,–
B5,–,–,4.75e+09,–,–,2.42e+09,5.22e+09,–,2.7e+08,1e+07,–
B6,3.93e+09,3.92e+09,3.6e+09,8.7e+08,–,–,–,–,2e+07,–,no binding
B7,1.9e+09,1.13e+09,1.8e+09,1.37e+09,1.72e+09,1.76e+09,–,–,–,–,–
